The record followed here is the Human Domainome abundance scans (Beltran et al. 2025).

B1: F-BAR and double SH3 domains protein 1, residues 467 to 528; numbered along this chain, Q86WN1 (parent)
chain: RALPCPAHVVFRYQAGREDELTITEGEWLEVIEEGDADEWVKARNQHGEVGFVPERYLNFPD

± gives the uncertainty stated by the source.

Variants of B1 are the subject of this data set. Briefly: abundance fitness (aPCA) (normalised: wild type 0, dead -1); higher = more abundant; growth selection in yeast, the domain comes from the species named. The following applies: Homo sapiens.
Take G26Q: the abundance fitness is -0.34 ± 0.13.

Regarding G26Y, the abundance fitness is -0.564 ± 0.13.

Regarding G26A, the abundance fitness is -0.501 ± 0.078.

As to G26T, the abundance fitness was -0.871 ± 0.2.

In the case of G26P, the abundance fitness was -0.776 ± 0.1.

For the variant G26N, the abundance fitness is -0.195 ± 0.15.

In the case of G26V, the abundance fitness is -0.942 ± 0.15.

With G26H, the abundance fitness was -0.389 ± 0.16.

Turning to G26W, the abundance fitness was -0.474 ± 0.11.

With G26L, the abundance fitness is -0.741 ± 0.092.

As to G26D, the abundance fitness is -0.047 ± 0.087.

With G26F, the abundance fitness is -0.871 ± 0.2.

For the variant G26M, the abundance fitness is -0.701 ± 0.11.

As to G26R, the abundance fitness is -0.558 ± 0.07.

Turning to G35W, the abundance fitness is -0.332 ± 0.1.

Turning to G35I, the abundance fitness was -0.232 ± 0.19.

Regarding G35T, the abundance fitness turned out to be 0.063 ± 0.088.

Consider G35Q, for which the abundance fitness was -0.379 ± 0.095.

For G35L, the abundance fitness was -0.318 ± 0.047.

With G35S, the abundance fitness was -0.07 ± 0.052.

G35Y: the abundance fitness was -0.223 ± 0.11.

For G35K, the abundance fitness was -0.126 ± 0.07.

Turning to G35H, the abundance fitness is -0.409 ± 0.2.

For the variant G35M, the abundance fitness was -0.202 ± 0.08.

As to G35V, the abundance fitness was -0.005 ± 0.061.

For the variant G35R, the abundance fitness is -0.072 ± 0.056.

Regarding G35E, the abundance fitness was -0.407 ± 0.089.

For G35N, the abundance fitness is -0.276 ± 0.11.

On to G35D, for which the abundance fitness is -0.211 ± 0.094.

Consider G35C, for which the abundance fitness is -0.179 ± 0.15.

As to G35F, the abundance fitness was -0.172 ± 0.11.

Consider G35P, for which the abundance fitness is -0.371 ± 0.079.

As for G35A, the abundance fitness was -0.045 ± 0.052.

Regarding I23W, the abundance fitness was -0.572 ± 0.1.

In the case of I23K, the abundance fitness was -0.718 ± 0.097.

I23M: the abundance fitness is -0.269 ± 0.045.

With I23G, the abundance fitness was -0.588 ± 0.098.

For I23S, the abundance fitness was -0.719 ± 0.064.

As for I23F, the abundance fitness is -0.791 ± 0.1.

Regarding I23R, the abundance fitness was -0.751 ± 0.069.

Consider I23V, for which the abundance fitness is -0.014 ± 0.045.

For I23Y, the abundance fitness was -0.958 ± 0.17.

Turning to I23A, the abundance fitness was -0.705 ± 0.085.

I23E: the abundance fitness was -0.833 ± 0.13.

I23T: the abundance fitness was -0.227 ± 0.076.

On to I23N, for which the abundance fitness was -1.18 ± 0.36.

For I23Q, the abundance fitness was -0.936 ± 0.13.

Take I23D: the abundance fitness is -0.739 ± 0.19.

Consider I23C, for which the abundance fitness is -0.228 ± 0.076.

Take T24L: the abundance fitness was -0.081 ± 0.046.

T24M: the abundance fitness is -0.02 ± 0.063.

On to T24K, for which the abundance fitness turned out to be 0.042 ± 0.077.

Consider T24G, for which the abundance fitness is -0.231 ± 0.069.

In the case of T24D, the abundance fitness was found to be 0.087 ± 0.088.

For T24V, the abundance fitness is -0.041 ± 0.053.

As to T24A, the abundance fitness is -0.117 ± 0.055.

On to T24H, for which the abundance fitness is 0.036 ± 0.12.

On to T24P, for which the abundance fitness was -0.879 ± 0.12.

Turning to T24Q, the abundance fitness was 0.051 ± 0.082.

On to T24I, for which the abundance fitness was -0.063 ± 0.12.

Regarding T24N, the abundance fitness is -0.212 ± 0.15.

Turning to T24F, the abundance fitness was -0.247 ± 0.082.

T24W: the abundance fitness is -0.25 ± 0.076.

On to T24E, for which the abundance fitness is 0.105 ± 0.082.

Consider T24S, for which the abundance fitness was -0.083 ± 0.051.

Turning to T24Y, the abundance fitness is -0.153 ± 0.096.

With T24R, the abundance fitness was -0.037 ± 0.059.

Turning to V31L, the abundance fitness was -0.454 ± 0.057.

With V31A, the abundance fitness is -0.465 ± 0.075.

In the case of V31M, the abundance fitness is -0.501 ± 0.12.

Consider V31D, for which the abundance fitness is -0.992 ± 0.32.

In the case of V31S, the abundance fitness is -0.683 ± 0.091.

As to V31N, the abundance fitness is -0.947 ± 0.23.

Turning to V31W, the abundance fitness was -0.837 ± 0.11.

For the variant V31R, the abundance fitness is -0.743 ± 0.069.

As for V31F, the abundance fitness was -0.991 ± 0.19.

For the variant V31P, the abundance fitness was -0.969 ± 0.19.

With V31T, the abundance fitness is -0.778 ± 0.14.

For the variant V31I, the abundance fitness is -0.028 ± 0.067.

Turning to V31H, the abundance fitness was -0.709 ± 0.15.

Take V31Q: the abundance fitness is -1.03 ± 0.34.

Regarding V31G, the abundance fitness was -0.888 ± 0.087.

Consider V31Y, for which the abundance fitness was -0.431 ± 0.22.

In the case of V31K, the abundance fitness was -0.797 ± 0.14.

For the variant E18Y, the abundance fitness is -0.233 ± 0.079.

With E18L, the abundance fitness was -0.23 ± 0.044.

E18I: the abundance fitness was -0.389 ± 0.16.

With E18K, the abundance fitness is -0.238 ± 0.086.

As for E18V, the abundance fitness was -0.134 ± 0.049.

For the variant E18H, the abundance fitness is -0.531 ± 0.34.

Regarding E18N, the abundance fitness was -0.086 ± 0.091.

Turning to E18P, the abundance fitness was -0.062 ± 0.067.

Regarding E18M, the abundance fitness is -0.245 ± 0.087.

As for E18Q, the abundance fitness turned out to be 0.01 ± 0.079.

Turning to E18S, the abundance fitness was -0.127 ± 0.048.

Regarding E18G, the abundance fitness was -0.072 ± 0.047.

As to E18R, the abundance fitness was -0.134 ± 0.039.

As for E18T, the abundance fitness was -0.013 ± 0.071.

Regarding L21N, the abundance fitness is -0.925 ± 0.26.

In the case of L21D, the abundance fitness is -0.851 ± 0.35.

As to L21S, the abundance fitness is -0.517 ± 0.093.

For the variant L21K, the abundance fitness was -0.989 ± 0.35.

Take L21E: the abundance fitness is -0.751 ± 0.18.

For L21P, the abundance fitness was -0.947 ± 0.18.

As to L21H, the abundance fitness was -0.701 ± 0.43.

In the case of L21R, the abundance fitness is -0.99 ± 0.13.

As to L21M, the abundance fitness was -0.198 ± 0.071.

In the case of L21T, the abundance fitness is -1.21 ± 0.47.

As for L21Q, the abundance fitness is -0.927 ± 0.21.

On to L21C, for which the abundance fitness is -0.951 ± 0.31.

Turning to L21V, the abundance fitness was -0.456 ± 0.098.

With L21I, the abundance fitness was -0.49 ± 0.12.

L21W: the abundance fitness is -0.648 ± 0.11.

Turning to L21Y, the abundance fitness is -1 ± 0.23.

On to L21F, for which the abundance fitness is -0.588 ± 0.16.

Take L21G: the abundance fitness was -0.87 ± 0.13.

Turning to D19Q, the abundance fitness amounted to 0.034 ± 0.079.

In the case of D19V, the abundance fitness came out at 0.103 ± 0.056.

With D19M, the abundance fitness is -0.12 ± 0.061.

With D19L, the abundance fitness was -0.086 ± 0.037.

On to D19G, for which the abundance fitness amounted to 0.159 ± 0.067.

Take D19T: the abundance fitness came to 0.051 ± 0.059.

For D19F, the abundance fitness is -0.006 ± 0.058.

Turning to D19R, the abundance fitness is -0.048 ± 0.039.

Consider D19Y, for which the abundance fitness is -0.04 ± 0.076.

On to D19H, for which the abundance fitness is -0.013 ± 0.11.

As to D19A, the abundance fitness was 0.092 ± 0.061.

For the variant D19N, the abundance fitness was -0.028 ± 0.084.

Take D19K: the abundance fitness was -0.05 ± 0.063.

For D19S, the abundance fitness came to 0.044 ± 0.039.

Regarding D19C, the abundance fitness is 0.087 ± 0.099.

As to D19I, the abundance fitness was -0.095 ± 0.073.

In the case of D19P, the abundance fitness was -0.396 ± 0.087.

For D19W, the abundance fitness is -0.426 ± 0.084.

For the variant I32F, the abundance fitness was 0.018 ± 0.063.

For I32W, the abundance fitness is -0.276 ± 0.07.

Take I32V: the abundance fitness is -0.07 ± 0.041.

Turning to I32Q, the abundance fitness was -0.307 ± 0.091.

In the case of I32E, the abundance fitness is -0.487 ± 0.078.

Consider I32D, for which the abundance fitness is -0.73 ± 0.15.

In the case of I32Y, the abundance fitness was -0.063 ± 0.088.

Turning to I32A, the abundance fitness is -0.84 ± 0.1.

I32K: the abundance fitness is -0.948 ± 0.24.

For the variant I32P, the abundance fitness is -0.726 ± 0.11.

For I32C, the abundance fitness was -0.557 ± 0.15.

For I32L, the abundance fitness is -0.059 ± 0.051.

I32G: the abundance fitness is -0.674 ± 0.09.

For I32M, the abundance fitness is -0.162 ± 0.055.

As for I32T, the abundance fitness is -0.256 ± 0.067.

Take I32S: the abundance fitness was -0.863 ± 0.12.

Regarding W28S, the abundance fitness is -0.014 ± 0.054.

In the case of W28V, the abundance fitness was 0.107 ± 0.071.

Consider W28Q, for which the abundance fitness was 0.026 ± 0.063.

As to W28P, the abundance fitness was -0.113 ± 0.089.

For the variant W28I, the abundance fitness was 0.026 ± 0.086.

Turning to W28T, the abundance fitness was -0.053 ± 0.081.

On to W28E, for which the abundance fitness is -0.081 ± 0.14.

For W28M, the abundance fitness is -0.024 ± 0.057.

Regarding W28H, the abundance fitness is 0.01 ± 0.1.

As for W28D, the abundance fitness was -0.046 ± 0.1.

As to W28G, the abundance fitness is -0.217 ± 0.058.

Turning to W28F, the abundance fitness is 0.134 ± 0.086.

On to W28K, for which the abundance fitness is -0.004 ± 0.1.

For the variant W28R, the abundance fitness worked out at 0.039 ± 0.041.

Regarding T22H, the abundance fitness is -0.494 ± 0.16.

In the case of T22V, the abundance fitness is -0.898 ± 0.1.

In the case of T22E, the abundance fitness is -0.5 ± 0.11.
